# Experimental data as given in patent publication US20250341513A1, “Bordetella T Cells Epitopes, Megapools and Uses Thereof” (LA JOLLA INSTITUTE FOR IMMUNOLOGY, priority 2022, published 2025).
# B1: pertactin (protein, UniProt P14283 35-910, looked up)
# Pertactin autotransporter: DWNNQSIVKTGERQHGIHIQGSDPGGVRTASGTTIKVSGRQAQGILLENPAAELQFRNGSVTSSGQLSDDGIRRFLGTVTVKAGKLVADHATLANVGDTWDDDGIALYVAGEQAQASIADSTLQGAGGVQIERGANVTVQRSAIVDGGLHIGALQSLQPEDLPPSRVVLRDTNVTAVPASGAPAAVSVLGASELTLDGGHITGGRAAGVAAMQGAVVHLQRATIRRGDAPAGGAVPGGAVPGGAVPGGFGPGGFGPVLDGWYGVDVSGSSVELAQSIVEAPELGAAIRVGRGARVTVSGGSLSAPHGNVIETGGARRFAPQAAPLSITLQAGAHAQGKALLYRVLPEPVKLTLTGGADAQGDIVATELPSIPGTSIGPLDVALASQARWTGATRAVDSLSIDNATWVMTDNSNVGALRLASDGSVDFQQPAEAGRFKVLTVNTLAGSGLFRMNVFADLGLSDKLVVMQDASGQHRLWVRNSGSEPASANTLLLVQTPLGSAATFTLANKDGKVDIGTYRYRLAANGNGQWSLVGAKAPPAPKPAPQPGPQPPQPPQPQPEAPAPQPPAGRELSAAANAAVNTGGVGLASTLWYAESNALSKRLGELRLNPDAGGAWGRGFAQRQQLDNRAGRRFDQKVAGFELGADHAVAVAGGRWHLGGLAGYTRGDRGFTGDGGGHTDSVHVGGYATYIADSGFYLDATLRASRLENDFKVAGSDGYAVKGKYRTHGVGASLEAGRRFTHADGWFLEPQAELAVFRAGGGAYRAANGLRVRDEGGSSVLGRLGLEVGKRIELAGGRQVQPYIKASVLQEFDGAGTVHTNGIAHRTELRGTRAELGLGMAAALGRGHSLYASYEYSKGPKLAMPWTFHAGYRYSW
# notes: aP vaccine antigen of B. pertussis
# B2: Fim 2: fimbrial protein 2, aP vaccine antigen (protein, UniProt P05788 27-207, looked up)
# Serotype 2 fimbrial subunit: DDGTIVITGTITDTTCVIEDPSGPNHTKVVQLPKISKNALKANGDQAGRTPFIIKLKDCPSSLGNGVKAYFEPGPTTDYSTGDLRAYKMVYATNPQTQLSNITAATEAQGVQVRISNLNDSKITMGANEATQQAAGFDPEVQTGGTSRTVTMRYLASYVKKNGDVEASAITTYVGFSVVYP
# B3: S-adenosylmethionine--tRNA ribosyltransferase-isomerase QueA (protein, UniProt Q7VZ81 1-347, looked up)
# S-adenosylmethionine:tRNA …: MPTPLTLADFDYHLPPELIAQSPAAERGGSRLLHLDAASRLHDRRFPDLAGLLRPHDLLVFNDTRVIKARLTGQKATGGKVEVLVERITAPDRALAHVRASKSPGPGMRLRLAEAFEAEVLGREGELFDLRFPAPVLDLLDAHGATPLPPYITHAADATDERRYQTVYAREPGAVAAPTAGLHFDQPMLEQLAAQGVQRAFVTLHVGAGTFQPVRVQNLAEHIMHAEWYTVPEATVAAIARARAHGGRIVAVGTTSVRALESAAAQAQDGPLAAAQGDTRLFITPGYRYRAVDALLTNFHLPQSTLLMLVSALAGVEPIRRAYAHAVAERYRFFSYGDAMFIETPAP
# B4: Virulence sensor protein BvgS (protein, UniProt P16575 33-1238, looked up)
# Virulence sensor protein BvgS: SQELTLVGKAAVPDVEVALDGDDWRWLARKRVLTLGVYAPDIPPFDVTYGERYEGLTADYMAIIAHNLGMQAKVLRYPTREQALSALESGQIDLIGTVNGTDGRQQSLRLSVPYAADHPVIVMPIGARHVPASNLAGQRLAVDINYLPKETLARAYPQATLHYFPSSEQALAAVAYGQADVFIGDALTTSHLVSQSYFNDVRVVAPAHIATGGESFGVRADNTRLLRVVNAVLEAIPPSEHRSLIYRWGLGSSISLDFAHPAYSAREQQWMADHPVVKVAVLNLFAPFTLFRTDEQFGGISAAVLQLLQLRTGLDFEIIGVDTVEELIAKLRSGEADMAGALFVNSARESFLSFSRPYVRNGMVIVTRQDPDAPVDADHLDGRTVALVRNSAAIPLLQRRYPQAKVVTADNPSEAMLMVANGQADAVVQTQISASYYVNRYFAGKLRIASALDLPPAEIALATTRGQTELMSILNKALYSISNDELASIISRWRGSDGDPRTWYAYRNEIYLLIGLGLLSALLFLSWIVYLRRQIRQRKRAERALNDQLEFMRVLIDGTPNPIYVRDKEGRMLLCNDAYLDTFGVTADAVLGKTIPEANVVGDPALAREMHEFLLTRVAAEREPRFEDRDVTLHGRTRHVYQWTIPYGDSLGELKGIIGGWIDITERAELLRKLHDAKESADAANRAKTTFLATMSHEIRTPMNAIIGMLELALLRPTDQEPDRQSIQVAYDSARSLLELIGDILDIAKIEAGKFDLAPVRTALRVLPEGAIRVFDGLARQKGIELVLKTDIVGVDDVLIDPLRMKQVLSNLVGNAIKFTTEGQVVLAVTARPDGDAAHVQFSVSDTGCGISEADQRQLFKPFSQVGGSAEAGPAPGTGLGLSISRRLVELMGGTLVMRSAPGVGTTVSVDLRLTMVEKSVQAAPPAAATAATPSKPQVSLRVLVVDDHKPNLMLLRQQLDYLGQRVIAADSGEAALALWREHAFDVVITDCNMPGISGYELARRIRAAEAAPGYGRTRCILFGFTASAQMDEAQRCRAAGMDDCLFKPIGVDALRQRLNEAVARAALPTPPSPQAAAPATDDATPTAFSAESILALTQNDEALIRQLLEEVIRTNRADVDQLQKLHQQADWPKVSDMAHRLAGGARVVDAKAMIDTVLALEKKAQGQAGPSPEIDGLVRTLAAQSAALETQLRAWLEQRPHQDQP
# B5: Fim 3: fimbrial protein 3, aP vaccine antigen (protein, UniProt P17835 26-204, looked up)
# Serotype 3 fimbrial subunit: NDGTIVITGSISDQTCVIEEPSTLNHIKVVQLPKISKNALRNDGDTAGATPFDIKLKECPQALGALKLYFEPGITTNYDTGDLIAYKQTYNASGNGNLSTVSSATKAKGVEFRLANLNGQHIRMGTDKTTQAAQTFTGKVTNGSKSYTLRYLASYVKKPKEDVDAAQITSYVGFSVVYP
# B6: Membrane protein insertase YidC (protein, UniProt P65622 1-563, looked up)
# Membrane protein insertase …: MDIRRTVLWMIFSFSLLLLWNNWQIHNGKPSLFGGPAPEAAATQQPKADANGTAASSTASIPSSPAAAPAAASVPGAAAPAAAKSEQVVITTDVLRLTFDSNGAQLIRAELLKYPSSSQSDKPTVLMDRSADLVYVAQTGVVGAPQGESFPTHQTPFHLVSSERSLTGDTLDVVFEAESGGLKVTKTYTLHRGRYDVDVRHAMANTGGAPLNPALYLQLERDGTDPAGTSSFYHTFTGVAVYSEQDKFQKVTFSDIEKKKGTYIKQADNGWIGIVQHYFATAWIPAQGKQRTNELLQVQQNLYAARTIEAVGTIAPGSSANVDAHLWVGPQDQKAMAAVAPGLELVVDYGWLTIIAKPLFTLMTWLHGLLGNWGWTIVALTVIIKAVFFPLAAASYRSMARMKQVAPRLQALKEKYGDDRQKLNQAMMEMYRTEKINPLGGCLPMVVQIPVFIALYWVLLASVEMRGAPWILWVHDLSVRDPFFILPAIMMATMFLQIKLNPTPPDPVQAKVMMIMPLVFGGMMFFFPAGLVLYWCVNNTLSIAQQWTITRNLERQAAAAANR
# B7: BrkA autotransporter (protein, UniProt Q45340 43-1010, looked up)
# BrkA autotransporter: QAPQPPVAGAPHAQDAGQEGEFDHRDNTLIAVFDDGVGINLDDDPDELGETAPPTLKDIHISVEHKNPMSKPAIGVRVSGAGRALTLAGSTIDATEGGIPAVVRRGGTLELDGVTVAGGEGMEPMTVSDAGSRLSVRGGVLGGEAPGVGLVRAAQGGQASIIDATLQSILGPALIADGGSISVAGGSIDMDMGPGFPPPPPPLPGAPLAAHPPLDRVAAVHAGQDGKVTLREVALRAHGPQATGVYAYMPGSEITLQGGTVSVQGDDGAGVVAGAGLLDALPPGGTVRLDGTTVSTDGANTDAVLVRGDAARAEVVNTVLRTAKSLAAGVSAQHGGRVTLRQTRIETAGAGAEGISVLGFEPQSGSGPASVDMQGGSITTTGNRAAGIALTHGSARLEGVAVRAEGSGSSAAQLANGTLVVSAGSLASAQSGAISVTDTPLKLMPGALASSTVSVRLTDGATAQGGNGVFLQQHSTIPVAVALESGALARGDIVADGNKPLDAGISLSVASGAAWHGATQVLQSATLGKGGTWVVNADSRVQDMSMRGGRVEFQAPAPEASYKTLTLQTLDGNGVFVLNTNVAAGQNDQLRVTGRADGQHRVLVRNAGGEADSRGARLGLVHTQGQGNATFRLANVGKAVDLGTWRYSLAEDPKTHVWSLQRAGQALSGAANAAVNAADLSSIALAESNALDKRLGELRLRADAGGPWARTFSERQQISNRHARAYDQTVSGLEIGLDRGWSASGGRWYAGGLLGYTYADRTYPGDGGGKVKGLHVGGYAAYVGDGGYYLDTVLRLGRYDQQYNIAGTDGGRVTADYRTSGAAWSLEGGRRFELPNDWFAEPQAEVMLWRTSGKRYRASNGLRVKVDANTATLGRLGLRFGRRIALAGGNIVQPYARLGWTQEFKSTGDVRTNGIGHAGAGRHGRVELGAGVDAALGKGHNLYASYEYAAGDRINIPWSFHAGYRYSF
# Tested on: CD4+ T cells
# Assay: BP genome-wide peptide library screening by ex vivo AIM assay; epitope and antigen (ORF) reactivity and donor recognition
# Format: cell-based, human
# Settings: for frequency of donor recognition: entire cohort (n=40); for magnitude, % of total response: sum of reactivity of individual epitopes per ORF/antigen across entire cohort (n=40), FIG. 3; for % of Donor response / % of Total magnitude: immunodominant antigens (ORFs); for % of Donor response: frequency of donors recognising the antigen; for % of Total magnitude: share of total CD4+ T cell response magnitude in the genome-wide screen
Molecule,frequency of donor recognition,"magnitude, % of total response",% of Donor response,% of Total magnitude
filamentous hemagglutinin [FHA],45.0 % of donors,2.12 % of total response,,
B1,40 % of donors,1.33 % of total response,,
B2,5 % of donors,0.09 % of total response,,
B3,,,17.5%,0.27%
B4,,,15%,0.76%
B5,12.5 % of donors,0.24 % of total response,,
B6,,,17.5%,1.35%
B7,,,20%,0.44%
